Values of other authors as cited in patent publication US7759315B2, “Treatment of inflammatory conditions of the intestine” (CSL Behring AG, priority 2005, dated 2010).
Non-standard residues stand in square brackets, D forms with d. No end group written: not given here. Orn = NCCC[C@H](N)C(=O)O; Aib = CC(C)(N)C(=O)O

Target: T1, LCAT (Homo sapiens, UniProt P04180)
T1 sequence (P04180 25-440): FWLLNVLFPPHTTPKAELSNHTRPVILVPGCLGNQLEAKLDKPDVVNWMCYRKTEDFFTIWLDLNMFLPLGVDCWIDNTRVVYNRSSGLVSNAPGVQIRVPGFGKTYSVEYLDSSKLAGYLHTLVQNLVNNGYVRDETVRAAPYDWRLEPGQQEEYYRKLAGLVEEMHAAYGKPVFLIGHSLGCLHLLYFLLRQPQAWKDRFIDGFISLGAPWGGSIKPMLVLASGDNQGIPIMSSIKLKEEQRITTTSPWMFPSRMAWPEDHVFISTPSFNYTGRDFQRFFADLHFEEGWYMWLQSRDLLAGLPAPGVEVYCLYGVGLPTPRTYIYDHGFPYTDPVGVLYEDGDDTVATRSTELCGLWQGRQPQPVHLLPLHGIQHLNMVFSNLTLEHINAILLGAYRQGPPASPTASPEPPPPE

ACTIVITY (%) LCAT | Substance
60% | PVLDLFREWLEELKQKLK* (not fully specified (N-terminus, C-terminus); printed as PVLDLFREWLEELKQKLK*) [Peptide 205]
76% | PVLELFENLLERLFDALQKKLK [Peptide 147]
4% | PVLELFLNLLERLLDAWQKKLK [Peptide 184]
50% | PVLELLKELLEELKQKLK* (not fully specified (N-terminus, C-terminus); printed as PVLELLKELLEELKQKLK*) [Peptide 207]
9% | PVLELFDNLLEKLLEALQKKLR [Peptide 178]
80% | GVLDLFRELLEELKQKLK* (not fully specified (N-terminus, C-terminus); printed as GVLDLFRELLEELKQKLK*) [Peptide 198]
0% | PVLDLFREGLEELKQKLK* (not fully specified (N-terminus, C-terminus); printed as PVLDLFREGLEELKQKLK*) [Peptide 228]
16% | PVLELFLNLLERLGDALQKKLK [Peptide 172]
18% | PVLELFENGLERLLDALQKKLK [Peptide 167]
7% | GIKKFLGSIWKFIKAFVG [Peptide 242, 18L peptide (Degreat et al., 1990), reference compound]
7% | PVLELFENLLEKLLEALQKKLK [Peptide 182]
38% | PVLELFLNLWERLLDALQKKLK [Peptide 155]
23% | PVLELFENLLERLLDLLQKKLK [Peptide 165]
0% | PVLDEFREKLNEELEWLKQKLK [Peptide 122]
87% | PVLELFKELLEELKQKLK* (not fully specified (N-terminus, C-terminus); printed as PVLELFKELLEELKQKLK*) [Peptide 195]
8% | DWFKAFYDKVFEKFKEFF [Peptide 241]

ACTIVITY (%) LCAT | Substance
35% | PVLELFKELLEELKQKLK [Peptide 216]
7% | PVLDEFREKLNELLEALKQKLK [Peptide 84]
29% | PVLDLFRELLNELLQKLK* (not fully specified (N-terminus, C-terminus); printed as PVLDLFRELLNELLQKLK*) [Peptide 218]
8% | PVLELFENLLERWLDALQKKLK [Peptide 181]
42% | PALELFKDLLEEFRQRLK* (not fully specified (N-terminus, C-terminus); printed as PALELFKDLLEEFRQRLK*) [Peptide 213]
35% | PVLELFLNLLERLLDALQKKLK [Peptide 156]
1% | PVLDAFRELGEALLQLKK [Peptide 226]
27% | PVLELFENLLERLLEALQKKLK [Peptide 161]
17% | PVLELFEQLLEKLLDALQKKLK [Peptide 168]
0% | PVLDEFREKLNEELEALWQKLK [Peptide 121]
4% | PVLDLFRELLNELLE~~~~~~~ [Peptide 97]
2% | PVLDLFRELLNEELEALKQKLK [Peptide 98]
13% | pvlelfenllerlldalgkklk ([dP][dV][dL][dE][dL][dF][dE][dN][dL][dL][dE][dR][dL][dL][dD][dA][dL][dQ][dK][dK][dL][dK]) [Peptide 174]
63% | PVLDFFRELLEELKQKLK* (not fully specified (N-terminus, C-terminus); printed as PVLDFFRELLEELKQKLK*) [Peptide 204]
15% | PVLDLFDNLLDRLLDLLNKKLK [Peptide 173]

Further lines, the substance ahead of its results:

Substance | ACTIVITY (%) LCAT
PVLDEFREKLWEXWEALKQKLK (PVLDEFREKLWE[Aib]WEALKQKLK; not fully specified (C-terminus)) [Peptide 111] | 0%
PVLDEFREKLNEXSEALKQKLK (PVLDEFREKLNE[Aib]SEALKQKLK; not fully specified (C-terminus)) [Peptide 112] | 0%
PVLELFENLLERLLDALQOOLO (PVLELFENLLERLLDALQ[Orn][Orn]L[Orn]; not fully specified (C-terminus)) [Peptide 185] | 3%
PVLDKFREKLNEXLEALKQKLK (PVLDKFREKLNE[Aib]LEALKQKLK; not fully specified (C-terminus)) [Peptide 74] | 10%
pvLDLFRELLNELLEALKQKLK [Peptide 48] | 22%
PVLDEFRWKLNEXLEALKQKLK (PVLDEFRWKLNE[Aib]LEALKQKLK; not fully specified (C-terminus)) [Peptide 61] | 16%
PVLDEFREKLNKXLEALKQKLK (PVLDEFREKLNK[Aib]LEALKQKLK; not fully specified (C-terminus)) [Peptide 77] | 9%
PVLDLFREGLNELLEALKQKLK [Peptide 20] | 57%
PVLDLFRELLNELLEALQKKLK [Peptide 24] | 53%
PVLDEFREKLNEXLWALKQKLK (PVLDEFREKLNE[Aib]LWALKQKLK; not fully specified (C-terminus)) [Peptide 89] | 6%
PWLDEFREKLNEXLEALKQKLK (PWLDEFREKLNE[Aib]LEALKQKLK; not fully specified (C-terminus)) [Peptide 64] | 15%
PVLDLFRELLNLXLEALKEKLK (PVLDLFRELLNL[Aib]LEALKEKLK; not fully specified (C-terminus)) [Peptide 102] | 2%
PVLDEFREKLNEXMEALKQKLK (PVLDEFREKLNE[Aib]MEALKQKLK; not fully specified (C-terminus)) [Peptide 114] | 0%
GVLDLFRELLNEGLEALKQKLK [Peptide 13] | 67%
PVLDFFREKLNEXLEALKQKLK (PVLDFFREKLNE[Aib]LEALKQKLK; not fully specified (C-terminus)) [Peptide 63] | 16%
PVLELFKELLQELLEALKQKLK [Peptide 17] | 59%
PVLDEFRELLNELLEALKQKLK [Peptide 79] | 9%
PVLDLFRELLNELLEGLKQKLK [Peptide 22] | 54%
PVLDLFRELLNELLEAGKQKLK [Peptide 12] | 70%
PHLDEFREKLNEXLEALKQKLK (PHLDEFREKLNE[Aib]LEALKQKLK; not fully specified (C-terminus)) [Peptide 116] | 0%
~VLDEFREKLNEXLEALKQKLK (VLDEFREKLNE[Aib]LEALKQKLK; not fully specified (C-terminus); printed as ~VLDEFREKLNEXLEALKQKLK) [Peptide 65] | 15%
PVLDKFRELLNEXLEALKQKLK (PVLDKFRELLNE[Aib]LEALKQKLK) [Peptide 88] | 7%
PVLDLLRELLNELLEALKQKLK [Peptide 16] | 59%
PVLDEFREKLNEXLEALKQKL~ (PVLDEFREKLNE[Aib]LEALKQKL; not fully specified (C-terminus); printed as PVLDEFREKLNEXLEALKQKL~) [Peptide 58] | 18%
